Results: PMC10194873

Experiments:
[1] = target: CagI (untagged, residues 21 to 381) (Helicobacter pylori strain 26695); assay: SEC-MALS
[2] = target: CagI N-terminal domain (CagI^N) (Helicobacter pylori strain 26695); assay: SEC-SAXS
[3] = target: CagI N-terminal domain (CagI^N) (Helicobacter pylori strain 26695); assay: SEC-MALS
[4] = target: CagI with a C-terminal strep-tag (residues 21-381) (Helicobacter pylori strain 26695); assay: SEC-MALS

Substance “CagI (untagged, residues 21 to 381) (natural protein)” has a stoichiometry N [1] of 2.
With “CagI N-terminal domain (CagI^N) (domain or fragment)” the stoichiometry N [2] was 2 and the stoichiometry N [3] was 2.
In the case of “CagI with a C-terminal strep-tag (residues 21-381) (natural protein)”, the stoichiometry N [4] is reported as 2.
